# Data taken from patent US12491259B2, “Anti-variable MUC1* antibodies and uses thereof” (Minerva Biotechnologies Corporation, priority 2022, dated 2025).
# Marks after values point to notes of the source that are not given here.
# Tests used:
# [1] = Toxicities in animal studies of the ADC formats; assay type: in vivo; conditions: each antibody incorporated into several ADC formats
# Description: Exatecans have a high level of bystander effect, meaning that they can kill neighboring cells. […] It is not completely clear whether these side effects are due to the payload or to the target, HER2, which is also expressed on normal lung and normal heart. Recall that the first two patients treated with a HER2 targeting CAR T cell product died shortly after the infusion. […] More recently, yet another patient died after being treated with a different HER2-targeting ADC.
# [2] = test system: T47D-MUC1* breast cancer cells; assay: xCELLigence real-time killing assay (impedance); assay type: cell-based, human
# Method: In this assay, impedance is measured in real-time. When the adherent cancer cells are killed and come off of the electrode surface, impedance (insulation) decreases. […] Either MNC2-MMAE, DAR 4.1, MN20A10-MMAE, DAR 5.8, MNC2-MMAF, DAR 3.7, MN20A10-MMAF, DAR 3.8, MNC2-Deruxtecan, DAR 7.2, or MN20A10-Deruxtecan, DAR 4.6, was then added to the cancer cells. […] Taxol and Triton are added as the positive killing control. […] Taxol and Triton are added as the positive killing control.
# In this assay, impedance is measured in real-time. When the adherent cancer cells are killed and come off of the electrode surface, impedance (insulation) decreases. […] Either MNC2-Exatecan, DAR 8.2, MNC2-Deruxtecan, DAR 4.0, MNC2-MMAE, DAR 4.1, or free Exatecan at 50 μM, was then added to the cancer cells.
# (§1) To assess real-time killing of target cancer cells including breast cancer cells (T47D), non-small cell lung cancer cells (NCI-H1975) and pancreatic cancer cells (HP AF II) assays were performed on an xCELLigence RTCA MP Instrument (Agilent). Target Cancer cells were seeded onto a multi-electrode well plate at a density of 5000 cells/well (100 μL of a 50,000 cells/mL stock) and incubated for 24 hr in a 37° C./5% CO2 incubator. mAb MNC2 ADCs or mAb MN20A10-ADCs were prepared as a 2× solution in corresponding growth media and 100 μL of each concentration was added to target cells. As a positive control (100% cell killing) cells were treated with either 1% triton or 1 μM Taxol instead of ADC. After 40-120 hours incubation in a 37° C./5% CO2 incubator cell killing was assessed. In this assay, impedance is measured in real-time. When the adherent cancer cells are killed and come off the electrode surface, impedance (insulation) decreases.
# (§2) MNC2-ADCs and MN20A10-ADCs were also assayed for their ability to kill both low and high MUC1* expressing cells by monitoring killing in real-time using an xCELLigence instrument. In the xCelligence system, target cancer cells, which are adherent, are plated onto electrode array 96-well plates. Adherent cells insulate the electrode and increase the impedance. The number of adherent cancer cells is directly proportional to impedance. […] Therefore, increasing impedance reflects the growth of the cancer cells and decreasing impedance reflects the killing of the cancer cells.
# [3] = test system: cancer cells that express low levels of MUC1*; assay: xCELLigence real-time killing assay, summary over low expressers; assay type: cell-based; conditions: FIG. 54 and FIG. 56, DAR 8.2
# [4] = test system: T47D wild-type breast cancer cells; assay: xCELLigence real-time killing assay (impedance); assay type: cell-based, human
# Method: FIGS. 49A-49J show traces from the real-time killing assays performed on an xCELLigence instrument. In this assay, impedance is measured in real-time. When the adherent cancer cells are killed and come off of the electrode surface, impedance (insulation) decreases. T47D wild-type breast cancer cells were plated onto multi-electrode-well plates at 5,000 cells per well and allowed to adhere and grow for 24 hours before the addition of ADCs. Either MNC2-MMAE, DAR 4.1, MN20A10-MMAE, DAR 5.8, MNC2-MMAF, DAR 3.7, MN20A10-MMAF, DAR 3.8, MNC2-Deruxtecan, DAR 7.2, or MN20A10-Deruxtecan, DAR 4.6, was then added to the cancer cells. […] Taxol and Triton are added as the positive killing control. […] Taxol and Triton are added as the positive killing control. […]
# as §1, §2
# Breast cancer cell line T47D-wt expresses MUC1* at low to low-medium levels. Pancreatic cancer cell line HPAF II-wt expresses even lower levels of MUC1* and lung cancer cell line NCI-H1975 express still lower levels of MUC1*.
# [5] = test system: NCI-H1975 lung cancer cells; assay: xCELLigence real-time killing assay (impedance); assay type: cell-based, human; conditions: readout 0 to 120 hours, DAR 8.2 (FIG. 56)
# Method: FIG. 51A-51I show traces from the real-time killing assays performed on an xCELLigence instrument. In this assay, impedance is measured in real-time. When the adherent cancer cells are killed and come off of the electrode surface, impedance (insulation) decreases. NCI-H1975 lung cancer cells were plated onto multi-electrode-well plates at 5,000 cells per well and allowed to adhere and grow for 24 hours before the addition of ADCs. Either MNC2-MMAE, DAR 4.1, MN20A10-MMAE, DAR 5.8, MNC2-MMAF, DAR 3.7, MN20A10-MMAF, DAR 3.8, MNC2-Deruxtecan, DAR 7.2, or MN20A10-Deruxtecan, DAR 4.6, was then added to the cancer cells. […] Taxol and Triton are added as the positive killing control. […].
# FIGS. 56A-56D show traces from the real-time killing assays performed on an xCELLigence instrument. In this assay, impedance is measured in real-time. When the adherent cancer cells are killed and come off of the electrode surface, impedance (insulation) decreases. Here NCI-H1975 non-small cell lung cancer cells that express very low levels of MUC1*, were plated onto multi-electrode 96-well plates at 5,000 cells per well and allowed to adhere and grow for 24 hours before the addition of ADCs. Either MNC2-Exatecan, DAR 8.2, MNC2-Deruxtecan, DAR 4.0, MNC2-MMAE, DAR 4.1, or free Exatecan at 50 μM, was then added to the cancer cells.
# as §1, §2
# [6] = test system: DU145 hormone refractory prostate cancer cells; assay: PrestoBlue live/dead cell assay and brightfield photographs; assay type: cell-based; conditions: 500 nM, 20× magnification
molecule,measurement,setting,value
"MN20A10: anti-MUC1* antibody, IgG2b isotype, CDRs SEQ ID NO 1-3 and 13-15 (antibody, V domains shown) VH: EVMLVESGGGLVKPGGSLKLSCAASGFTFSTYAMSWIRQTPEKRLEWVASIGRAGSTYYSDSVKGRFTISRDNVRNILYLQMSSLRSEDTAMYYCARGPIYNDYDEFAYWGQGTLVTVSA VL: NIMMTQSPSSLAVSAGEKVTMSCKSSQSVLYSSNQKNYLAWYQQKPGQSPKLLIYWASTRESGVPDRFTGSGSGTDFTLTISSVQAEDLAVYYCHQYLSSLTFGAGTKLELK",toxicities,[1],elicited no toxicities in animal studies
MNC2-Exatecan (conjugate) VH: EVQLVESGGGLVKPGGSLRLSCAASGFTFSGYAMSWVRQAPGKGLEWVSTISSGGTYIYYPDSVKGRFTISRDNAKNSLYLQMNSLRAEDTAVYYCARLGGDNYYEYFDVWGKGTTVTVSS VL: DIVLTQSPASLAVSPGQRATITCRASKSVSTSGYSYMHWYQQKPGQPPKLLIYLASNLESGVPARFSGSGSGTDFTLTINPVEANDTANYYCQHSRELPFTFGGGTKVEIKRT,concentration as low as which cancer cells are potently killed,"[2]; readout 0 to 120 hours, MNC2-Exatecan DAR 8.2, MNC2-Deruxtecan DAR 4.0 (FIG. 55)",as low as 6.2 nM and even as low as 2.1 nM
same,killing potency compared with MNC2-deruxtecan (DAR 4.0) and MNC2-MMAE (DAR 4.1),[3],more potent killing of the low MUC1* expressing cancer cells
same,concentration as low as which target cancer cells are potently killed,"[4]; readout 0 to 120 hours, DAR 8.2 (FIG. 54)",56 nM
same,concentration as low as which cancer cells are potently killed,[5],167 nM
MN20A10-Deruxtecan (conjugate) VH: QVQLVESGGGLVKPGGSLRLSCAASGFTFSTYAMSWIRQAPGKGLEWVASIGRAGSTYYSDSVKGRFTISRDNAKNSLYLQMNSLRAEDTAVYYCARGPIYNDYDEFAYWGQGTLVTVSS VL: EIVLTQSPATLSLSPGERATLSCKSSQSVLYSSNQKNYLAWYQQKPGQAPRLLIYWASTRESGIPARFSGSGSGTDFTLTISSLEPEDFAVYYCHQYLSSLTFGGGTKVEIKR,cell morphology in photographs,[6],rounding up and dead cells
same,ADC concentration at which essentially all (near total) tumor cells were killed,[2]; readout 120 hours post ADC addition,167 nM
same,concentration showing potent / effective / comparable killing,[4]; after 120 hours,167 nM
same,concentration with significant killing,"[4]; by 120 hours, DAR 4.6",167 nM
